# Tested on: isolated microspores of Triticale (variety Sunray)
# Experiment: CPP delivery of GUS enzyme into isolated microspores, GUS staining
# Type: cell-based
# Settings: GUS enzyme cargo:CPP 1:4, 1 hour at 37° C., three repeats
# Protocol: Triticale line Sunray grown in a growth cabinet with a photoperiod of 19 h day (intensity 300 μE m-2 s-1), and temperature 18-15° C. (day-night) with a relative humidity at about 70% was used as the donor plant material. The plants were fertilized every 2 weeks (20-20-20, 200 ppm) and treated with 2.5 ml I-1 Tilt™ (propiconazole, Syngenta) during the tillering stage and Intercept™ (0.004 g per litre of soil, Imidacloprid, Bayer) once sufficient root development was established. The first 10 tillers from each pot were harvested when the spike was at 3-4 cm, depending on the crop, from emergence from the boot. These tillers (to be used for microspore isolation) were subjected to pre-treatment in a refrigerator (4° C.) for 21 days with their bases in distilled water and their heads wrapped in aluminum foil. After 21±3 days of pre-treatment, the spikes were excised from their tillers and after an evaluation of their general appearance, only the most homogenous spikes were used. After confirming microspores at mid to bi-nucleate stage from a median floret, using acetocarmine staining, the tillers were processed for extraction.
# Awns were removed with scissors in a laminar flow hood. […] After counting the cells using a haemocytometer, aliquots of 100,000 cells in 200 μl volume were prepared in 2 ml microcentrifuge tubes to be ready for transduction. […]
molecule,measurement,value
"Gus protein: β-Glucuronidase (GUS; Sigma Aldrich, Escherichia coli Type VII-A), cargo used alone (protein, UniProt P05804 1-603, looked up) Beta-glucuronidase: MLRPVETPTREIKKLDGLWAFSLDRENCGIDQRWWESALQESRAIAVPGSFNDQFADADIRNYAGNVWYQREVFIPKGWAGQRIVLRFDAVTHYGKVWVNNQEVMEHQGGYTPFEADVTPYVIAGKSVRITVCVNNELNWQTIPPGMVITDENGKKKQSYFHDFFNYAGIHRSVMLYTTPNTWVDDITVVTHVAQDCNHASVDWQVVANGDVSVELRDADQQVVATGQGTSGTLQVVNPHLWQPGEGYLYELCVTAKSQTECDIYPLRVGIRSVAVKGEQFLINHKPFYFTGFGRHEDADLRGKGFDNVLMVHDHALMDWIGANSYRTSHYPYAEEMLDWADEHGIVVIDETAAVGFNLSLGIGFEAGNKPKELYSEEAVNGETQQAHLQAIKELIARDKNHPSVVMWSIANEPDTRPQGAREYFAPLAEATRKLDPTRPITCVNVMFCDAHTDTISDLFDVLCLNRYYGWYVQSGDLETAEKVLEKELLAWQEKLHQPIIITEYGVDTLAGLHSMYTDMWSEEYQCAWLDMYHRVFDRVSAVVGEQVWNFADFATSQGILRVGGNKKGIFTRDRKPKSAAFLLQKRWTGMNFGEKPQQGGKQ",Average Transduction Efficiency,not capable of transducing itself

# Reference: patent US20160340683A1, “NANOCARRIER BASED PLANT TRANSFECTION AND TRANSDUCTION” (HER MAJESTY THE QUEEN IN RIGHT OF CANADA AS REPRESENTED BY …, priority 2007, published 2016)
